Paper PMC3289617, “Biochemical, Mutational and In Silico Structural Evidence for a Functional Dimeric Form of the Ornithine Decarboxylase from Entamoeba histolytica” (PLoS Neglected Tropical Diseases, 2012)

Columns and labels:
[1] = target: EhODC Gly361Tyr mutant (Entamoeba histolytica); experiment: SEC; HiLoad 16/60 Superdex 200, buffer B (50 mM Tris-HCl pH 7.5, 250 mM NaCl, 0.2 mM DTT, 5% glycerol), 500 µl of ~10 mg/ml protein, 0.5 ml/min, calibrated with HMW standards; the wild type was also run after 4 h at 4°C with 2 M or 4 M NaCl or urea (partial dissociation to monomer)
[2] = target: EhODC Cys334Ala mutant (Entamoeba histolytica); experiment: SEC; gel filtration of the active-site mutants, data not shown
[3] = target: EhODC Cys334Ala mutant (Entamoeba histolytica)
[4] = target: EhODC Lys57Ala mutant (Entamoeba histolytica); experiment: SEC; gel filtration of the active-site mutants, data not shown
[5] = target: EhODC Lys157Ala mutant (Entamoeba histolytica); experiment: SEC; HiLoad 16/60 Superdex 200, buffer B (50 mM Tris-HCl pH 7.5, 250 mM NaCl, 0.2 mM DTT, 5% glycerol), 500 µl of ~10 mg/ml protein, 0.5 ml/min, calibrated with HMW standards; the wild type was also run after 4 h at 4°C with 2 M or 4 M NaCl or urea (partial dissociation to monomer)
[6] = target: the molecule itself; experiment: cross-linking; glutaraldehyde vapour (12.5%, acidified) over a hanging drop of 15 µl protein at 1 mg/ml in 20 mM sodium phosphate pH 7.5, 37°C, 10 min; 12% SDS-PAGE, Coomassie

EhODC Gly361Tyr mutant (enzyme)
stoichiometry N [1]: 2

EhODC Cys334Ala mutant (enzyme)
stoichiometry N [2]: 2

EhODC Lys57Ala mutant (enzyme)
ornithine decarboxylase activity (colorimetric DAO/HRP assay) of the two inactive mutants mixed in equal concentration (1:1), relative to wild type; each mutant alone ~2% (% of wild-type activity) [3]: 29
stoichiometry N [4]: 2

EhODC Lys157Ala mutant (enzyme)
stoichiometry N [5]: 2

B1: Ornithine decarboxylase from Entamoeba histolytica (EhODC), wild type (enzyme, UniProt Q58P26 1-413, looked up)
chain: MKQTSLEVKEFALNLISQFEPENQPLGFWIFDTEGVEKAVERWKKNMPTVRPCFAVKCNPEPHLVKLLGELGCGFDCASLNEIKEVLDLGFNPEDITYSQTFKPYNQLIEASHLGINHTIVDSIDEVQKIAKYAPKMGIMIRIMENDTSAGHVFGEKFGLHDDEVEIVLKEIKDKGLNLDGVHFHVGSDSHNSEVFTKALTKARNTVTLAEQFGMKPYLIDIGGGFSQVAPFEEFAATIEKTIKELEFPERTRFIAEPGRYMASNAFHLVSSLHGKRVRIQNGKKQIEYTSGDGLHGSFGCCIWFEKQKSCECITQKVNENTKMYESIIYGPSCNGSDKVATQELPEMEPGKDWLLFPNMGAYTISMATNFNGFEERNHVIYTLPLKSTKIIQIPKSIECNSVPSLNGIPHYA
notes: Ornithine decarboxylase, Entamoeba histolytica, NCBI AAX35675, 413 amino acids, predicted 46.43 kDa; full-length gene in pET30a; The His tag is followed by an enterokinase site and was removed before gel filtration; PLP is the cofactor; also called E. histolytica ODC; source: E. coli BL21 (DE3), purified (HisTrap HP, enterokinase cleavage, second HisTrap, Superdex 200); not shown: His6, …
stoichiometry N [6]: 2
